Source: the nanobody polyreactivity screen of Harvey et al. (2022)

Test: yeast display, Sf9 membrane polyspecificity reagent, FACS + sequencing; frameworks hold sequencing errors
Outline: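 In a synthetic yeast display library (Saccharomyces cerevisiae BJ5465), nanobody expression was induced with galactose for 36–48 hours. FACS gates were set low and high (top ~1%) using anti-HA fluorescence for expression and streptavidin fluorescence for binding of the Sf9 membrane reagent. Each polyreactivity label is drawn from the gate of origin.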

Sequence	polyreactivity (PSR sort gate)
QVQLVESGGGLVQAGGSLRLSCAASGSIFPKYAMGWYRQAPGKERELVAGISRSGGITHYADSVKGRFTISRDNAKNTVYLQMNSLKPEDTAVYYCAALWARALSYYYWGQGTQVTVSS	high polyreactivity
QVQLVESGGGLVQAGGSLRLSCAASGSTFRRYAMGWYRQAPGKERELVATITSGGRTNYADSVKGRFTISRDNAKNTVYLQMNSLKPEDTAVYYCADRPYFYERSAGYYWGQGTQVTVSS	high polyreactivity
QVQLVESGGGLVQAGGSLRLSCAASGRISPKNAMGWYRQAPGKERELVATIRKIGGRTYYADSVKGRFTISRDNAKYTVYLQMNSLKPEDTAVYYCATDFAPSYYPDRFDYWGQGTQVTVSS	low polyreactivity
QVQLVESGGGLVQAGGSLRLSCAASGLTFIYKAMAWYRQAPGKERELVAAISGNGGDTYYADSVKGRFTISRDNAKKTVYLQMNSLKPEDTAVYYCAADYAYTPITWDEYWGQGTQVTVSS	low polyreactivity
QVQLEESVGGLDQAGGSLRLSCAASGHIIVYYPLGWYRQAPGKERELVAAITSGGSTNYADSGKGRFTISRDNAKNTVYLQMNSLKPADSAVYYCAARQWFSHRRWGGSRYDYWGQGTQVTVSS	low polyreactivity
QVQLVESGGGLVQEGGSLRLSCAASGIIFPVYDMGWYRQAPGKERELVASITDSGGSTSYADSVKGRFTLSRDNAKNTVYLQMNSLKPEDTAVYYCAVTDSDTNYYGYLSYDYWGQGTQVTVSS	low polyreactivity
QVQLVESGGGLVQAGGSLRLSCAASGRIIGYYAMGWYRQAPGKEWELVAAITSSGSRTYYADSVKGRFTISRDNAKNTVYLQMNSLKPDDTAVYYCATTKVYYSAKSSYYYWGQGNQVTVSS	high polyreactivity
QVQLVESGGGLVQAGGSLRLSCAASGIIFRPYAMGWYRQAPGTEMELVAAITGSGVSTYYADSVKGRFTISRDNAKNTVYLQMNSLKPEDTAVYYCAKRYNRGYHRYDYWGQGTQVTVSS	low polyreactivity
QVQLVESGGGLVQAGGSLRLSCAASGIILDRNAMGWYRQAPGKERELVAAINSIGGSTYYADSVKGRFTISRDTAKNTVYLQMNSLKPEDTAVYYCNVAQRYYGNFFSSRYEYWGQGTQVTVSS	low polyreactivity
QFQIVDSVGGLVQAGGSLRLSCAASGRTFSYYSLGWYREATGKERELVASIRKSGASTYYADSVKGRFTISRDNAKNTVYLQMNSLKPEDTAVYYCNTAGWSFYSGRYDYWGQGTQVTVSS	high polyreactivity
QVQLVESGGGLVQAGGILRLSCAASGSIFPYYAMGWYRQAPGKERELVATITSRGGSTYYADSVKGRFTISRDNAKNTVYLQMNSLKPEDTAVYYCNTLQPYLYDYWGQGTQVTVSS	high polyreactivity
QVQLVESGGGLVQAGGSLRLSCAASGGIFRYYAMGWSRQAPGKEMELVAAITRGGRTSYADSVKGRFTISRDNAKNSVYLQMNSLKPEDTAVYYCNAKRPYQEHNSYGYWGQGTLVTVSS	high polyreactivity
QVQLVESGGGLVQAGGSLRLSCAASGLIFASYAMGWYRQAPGKERELVAAITSSGGSTYYADSVKGRFTISRDNAKNTVYLQMNSLKPEDTAVYYCAADIYTYNLFYHWSWLDYNYWGQGTQVTVSS	high polyreactivity
QVQLVESGGGLVQAGGSLRLSCAASGRTFYGNGMGWYRQAPGKDRELVAAISWSGGSTYYADSVKGRFTISRDNAKNTVYLQMNSLKPEDTAVYYCAAAYRSFIIGRWYDYWGQGTQVTVSS	low polyreactivity
QVQLVESGGGLVQAGGSLRLSCAASGIIFWYYAMGWYRQAPGKERELVAAISSGGGTNYADSVKGRFTISRDNAKNTVYLQMNSLKPEDTAVYYCNADDNPVWEYDYWGQGTQVTVSS	low polyreactivity
QVQLVESGAGLVQAGGSLRLSCAASGSIYTLNAMGWYRQAPGKEMELVAAITSSGTGTYYADSVKGRFTISRDNAKNTVYLQMNSLKPEDTAVYYCAKDRPYWLSYGSWFKFNYWGQGTQVTVSS	low polyreactivity
QVQLVESGGGLVQAGGSLRLSCAASGRTFKYYAMGWYRQAPGKERELVATISFRGGSTYYADSVKGRFTISRDNAKNTVYLQMNSLKPEDTAVYYCAATTPYYTPRRRNDYWGQGTQVTVSS	high polyreactivity
QVQLVESGGGLVQAGGSLRLSCAASGITLSWYAMGWSRQAPGKERELVAGISGRGGRTYYADSVKGRFTISRDNAKNTVYLQMNSLKPEDTAVYYCAADCPGYRSYDYWGQGTQVTVSS	high polyreactivity
QVQLVESGGGLVQAGGSLSLSCSASGSIFAGYARGWYRQAPGKERELVAAISVSGGGTYYADSVKGRFTISRDNAKNTVYLQMNSLKPEDTAVYYCAATGSSRYGRNYYSWGQGTQVTVSS	high polyreactivity
QVQHVESGGGLVQAGGTLRLSCASSGRTLYYYTMGWYRQAPGKESELVAAISKSGGSTYYADSVKGRFTISRDNAKNTVYLQMNSLKPEDTAVFYCAADRSAYSRGYVRYIYWGQGTKVTVSS	high polyreactivity
QVQLVESGGGLVQAGGSLRLSCAASGNTFRIYAMGWYRQAPGKERELVAAISQSGGSTYYADSVKVRFTISRDNAKYTVYLQMNSLKPEDTAVYYCQLIRRGHDYWGQGTQVTVSS	high polyreactivity
QVQLVESGGGLVQAGGSLRLSCAASGRIFTRNVMGWYRQAPGKERELVARINSGGRTYYADSVKGRFTISRDNAKNTVYLQMNSLKPEDTAVYYCAVPFYWYSPMDSWGQGTQVTVSS	high polyreactivity

Sequence	polyreactivity (PSR sort gate)
HVQLQESAGGLVQAGASLRLSCAPSGNISYSRNMGWYRQAPGKERELVAAIDRGAITYYADSVKGRFTISRDNEKNTVYLQIFSLKPEDTAVYYCAAVYHDRWDHRYWGQGTQVTVSS	high polyreactivity
QVQLVESGGGLVQAGGSLRLSCAASGSTRYYAMGWYRQAPGKERELVATISSRSRTYYADSVKGRFTISRDNAKNTVYLQMNSLKPDDPAVYYCAARRRRFYYQYYRYDYWGQGTQVTVSS	high polyreactivity
QVQLQESGGGLVQAGGILRLSCAACGNIFPSAVMGWYRQALGKEREFVATINSGSNTYYADSVNGRFSISRDNAKHTVYLHRNSLKLQDTAVYYCAAYFKLPAWHTSWGQGTQVSVSS	low polyreactivity
QVQLDESGGGLVQAGGSLRLSCADSGRIFDRNALGWYRQAPGKESELVAAISSRGTSTYYADSVKGRFTISRDNAKNTVYLQMNSLKPEDTAVYYCAARPRYASDEFGYWGQGTQVTVSS	low polyreactivity
QVQLVESGGGLVQAGGSLRLSCAASGSIFDPYAMGWYRQAPGKERELVAAITYSVGGTTYYADSVKGRFTISRDNAKNTVYLQMNSLKPEDTAVYYCAAEWWGNPFDYWGQGTQVTVSS	high polyreactivity
QVQLVESGGGLDQAGGSLRLSCAASGFTFYRNAMGWYRQAPGKERELVAAITSGGSTYYADSVKGRFTISRDNAKNTVYLQMNSLKPEDTAVYYCAAYVWSGWGHWFYYWGQGTQVTVSS	high polyreactivity
QVQLVDSGGGLVQAGGSLRLSCAASGLTITVYVMGWYRQAPGKERELVAAIDWSGGSTYYADSVKGRFTISRDNAKNTVYLQMNSLKPEDTAVYYCASETTDYAYYGFTYDYWGQGTQVTVSS	low polyreactivity
QVQRVESGGGLVQAGVSLRLSCASSGITFDVNALGWYRQAPGKERELVAAITAGGNTYYADSVKGRFTISRDKAKTTVYLQMNSLKPEETAVYYCAAVSTSLYWAGYDYWGQGTQVTVSS	low polyreactivity
QVQLVESGGGLVQAGGSLRLSCAASGRIFKRYAKGWYRQAPGKERELVAAISGSGGSTSYADSVKGRFTLSRDNAKNTVYLQMNSLKPEDTAVYYCNTTPRFIRSIGQGNYWVQGTQVTVSS	high polyreactivity
QVQLVESGGGLVQAGGSLRLSCAASGSTFAANAMGWYRQAPGKERELVAVIRRGGSTTYADSVKGRFTISRDNAKNTVYLQMNSLKPEDTAVYYCHARVTLGRPLFTYLVRYEYWGQGTQVTVSS	high polyreactivity
QVQLVESGGGLVQAGGSLRLSCAAAGITLYRYVMGWYRQAPGKERELVADISGRGTSTYYADSEKGRFTISRDNAKNTVYLQMNSLKPEDTAVYYCNAEYTKTGALVIPYTYYYAEDYWGQGTQVTVSS	low polyreactivity
QVQLVESRGGLVQAGGSLRLSCAASGRILYVNDMGWYRQAPRKERELVAAISWRGGRTYYADSVKGRFTISRDNAKNTVYLQMNSLKPEDTAVYYCAARARGGYQRDYYWGQGTQVTVSS	high polyreactivity
QVQLVESGGGLVQAGGSLRLSCAASGRTFDLYAMGWYRQAPGKERELVARITNIDDSTYYADSVKGRFTISRDNAKNTVYLQMNSLKPEDTAVYYCNAASYSRGPARYDYWGQGTQVTVSS	high polyreactivity
QVQLVESGGGLVQAGGSLRLSCAASGIIFPEYDMGWYRQAPGKERELVAAITKSDGRTYYADSVKGRFTISRDNAKNTVYLQMNSLKPEDTAVYYCNADPRVVAYLGFDSWGQGTQVTVSS	low polyreactivity
QVQLVESGGVLVQAGGSLRLSCAASGRTFYGYAMGWNRQAPGKERYLVAAIDIDVGNTYYADSVKGRFTISRDNAKNTVYLQMNSLKPEDTAVYYCAAEIPSWWLPALFRYDYWGQGTQVTVSS	low polyreactivity
QVQLVESGGGLVQAGGSLRLSCAASGRIFTYYAMGWYIQAPGKERELVASITGSGGSTDYADSVKGRFTISRDNAKNTVYLQRNSLKPEDTAVYYCAADGLSYGPLYNYDYWGQGTQVTVSS	low polyreactivity
QVQLVESGGGLVQAGGSLRLSCAASGFIFYSSDMGWYRQSPGKERELVAAIDSRGVNTYYADSVKGRFTISRDNAKNTVYLQMNSLKPEDTAVYYCNVDAINWWDWEDFDYWGQGTQVTVSS	low polyreactivity
QVQLVESGGGLVQAGGSLRLSCAASGSTFSRYAMGWYRQAPGKERELVAAISWRGGRTYYADSVKGRFTISRDNAKNTVYLPMNSLKPEDTAVYYCNAVSSFTSPRYAYWGQGTQVTVSS	high polyreactivity
QVQLVESGRGLVQAGGSLRLSCAASGRIFGRNTIGWYRQAPRKEREMVAVISFRGGSTYADSVKGRFTISRDNAKNTVYLQMNSLKPEDTAVYYCARTAYSTRPYRFDYWGQGTQVTVSS	high polyreactivity
QVQLVESGGGLVQAGGSLRLSCAASGSTFPYNAMGWYRQAPGKERELVAAITSSGRTNYADSVKGRFTISRDNANNTVYLQMNSLKPEDTAVYYCAAARWYAHRVDYWGQGTQVTVSS	low polyreactivity
QVHLVESGGGLVQAGGSLRLSCAASGSIFYSYAMGWYRQAPGKERELVASINWSGASTYYADSVKGRFTISRDNAKNTVYLQMNSLKPEDTAVYYCAADWWGYDGRYDYWGQGTQVTVSS	high polyreactivity
